No end group written: not given here.

In assay [1] the target is T1, activated IL-18 protein (IL-18^37-193) (human, UniProt Q14116 37-193).
T1 sequence (looked up): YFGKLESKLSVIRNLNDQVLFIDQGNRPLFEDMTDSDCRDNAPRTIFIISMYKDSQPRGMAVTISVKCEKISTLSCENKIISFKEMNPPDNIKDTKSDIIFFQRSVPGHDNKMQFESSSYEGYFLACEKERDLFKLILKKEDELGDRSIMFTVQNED
Briefly: cell-based or functional assay.

The target in assay [2] is T2, peptide S43A (alanine variant of …) (human, not fully specified).
T2 construct: Position is counted on IL-18
T2 peptide: YFGKLEAKC
Briefly: ELISA on BSA-crosslinked peptide (alanine scanning).

Assay [3] concerns the target T3, peptide K44A (alanine variant of …) (human, not fully specified).
T3 construct: Position is counted on IL-18
T3 peptide: YFGKLESAC
The description is as above.

Assay [4] deals with T4, peptide F38A (alanine variant of …) (human, not fully specified).
T4 construct: Position is counted on IL-18
T4 peptide: YAGKLESKC
The description is as above.

Assay [5] addresses T5, neoepitope peptide (positions 37 to 44, C-terminal Cys) with positions 41 to 44 substituted with alanine (human, not fully specified).
T5 construct: Member of the successive alanine series, derived from the description of the series; Positions are counted on IL-18; also called peptide having the presence of lysine at position 40
T5 peptide: YFGKAAAAC
The assay can be described thus: ELISA on BSA-crosslinked peptide (neoepitope fine analysis).

In assay [6] the target is T6, neoepitope peptide (positions 37 to 44, C-terminal Cys) with positions 42 to 44 substituted with alanine (human, not fully specified).
T6 construct: Member of the successive alanine series, derived from the description of the series; Positions are counted on IL-18; also called peptide having the presence of lysine at position 40
T6 peptide: YFGKLAAAC
Described as above.

Assay [7] deals with T7, neoepitope peptide (positions 37 to 44, C-terminal Cys) with positions 43 to 44 substituted with alanine (human, not fully specified).
T7 construct: Member of the successive alanine series, derived from the description of the series; Positions are counted on IL-18; also called peptide having the presence of lysine at position 40
T7 peptide: YFGKLEAAC
The assay is described as above.

The target of assay [8] is T8, peptide G39A (alanine variant of …) (human, not fully specified).
T8 construct: Position is counted on IL-18
T8 peptide: YFAKLESKC
The assay can be described thus: ELISA on BSA-crosslinked peptide, alanine scanning; row [..].

The target of assay [9] is T9, peptide Y37A (alanine variant of …) (human, not fully specified).
T9 construct: Position is counted on IL-18
T9 peptide: AFGKLESKC
Briefly: ELISA on BSA-crosslinked peptide, alanine scanning; row AFGKLESK

Assay [10] deals with T4, peptide F38A (alanine variant of …). Briefly: ELISA on BSA-crosslinked peptide, alanine scanning; row YAGKLESK
Assay [11] has as its target peptide K40A (alanine variant of …) (human, C-terminal Cys crosslinked to BSA in ELISA; thiol-coupled to sensor chip CM5 in SPR). The assay can be described thus: ELISA on BSA-crosslinked peptide, alanine scanning; row YFGALESK
In assay [12] the target is T10, peptide L41A (alanine variant of …) (human, not fully specified).
T10 construct: Position is counted on IL-18
T10 peptide: YFGKAESKC
The assay can be described thus: ELISA on BSA-crosslinked peptide, alanine scanning; row YFGKAESK

In assay [13] the target is T11, peptide E42A (alanine variant of …) (human, not fully specified).
T11 construct: Position is counted on IL-18
T11 peptide: YFGKLASKC
Briefly: ELISA on BSA-crosslinked peptide, alanine scanning; row YFGKLASK

For assay [14], the target named is T2, peptide S43A (alanine variant of …). Briefly: ELISA on BSA-crosslinked peptide, alanine scanning; row YFGKLEAK
The target in assay [15] is T3, peptide K44A (alanine variant of …). The assay can be described thus: ELISA on BSA-crosslinked peptide, alanine scanning; row YFGKLESA
The target of assay [16] is T12, neoepitope peptide (positions 37 to 44, C-terminal Cys) with positions 40 to 44 substituted with alanine (human, not fully specified).
T12 peptide: YFGAAAAAC
Briefly: ELISA on BSA-crosslinked peptide, neoepitope fine analysis; row YFGAAAAA

In assay [17] the target is T5, neoepitope peptide (positions 37 to 44, …). The assay can be described thus: ELISA on BSA-crosslinked peptide, neoepitope fine analysis; row YFGKAAAA
Assay [18] addresses T6, neoepitope peptide (positions 37 to 44, …). Briefly: ELISA on BSA-crosslinked peptide, neoepitope fine analysis; row YFGKLAAA
Assay [19] addresses T7, neoepitope peptide (positions 37 to 44, …). Briefly: ELISA on BSA-crosslinked peptide, neoepitope fine analysis; row YFGKLEAA
Assay [20] has as its target T3, peptide K44A (alanine variant of …). The assay can be described thus: ELISA on BSA-crosslinked peptide, neoepitope fine analysis; row YFGKLESA
The target in assay [21] is T13, neoepitope peptide IL-18^37-44 with C-terminal cysteine (YFGKLESKC) (human, not fully specified).
T13 construct: also called IL-18^37-44 peptide; wild-type peptide
T13 peptide: YFGKLESKC
The assay can be described thus: ELISA on BSA-crosslinked peptide, alanine scanning; row YFGKLESK (reference set as 100).

For assay [22], the target named is T13, neoepitope peptide IL-18^37-44 with …. Briefly: ELISA on BSA-crosslinked peptide, neoepitope fine analysis; row YFGKLESK (reference set as 100).
For assay [23] the target is unchanged. Briefly: SPR, Biacore X100, peptide thiol-coupled to CM5, antibody 0.4-250 nM, single-cycle, bivalent analysis.

B1: monoclonal antibody 8-4.1 (antibody, V domains shown)
VH: LSITCTVSGFSLTSYGVHWVRQPPGKGLEWLGVIWAGGSTNYNSALMSRLSISKDNSKSQVFLKMNSLQTDDTAMYYCARESSYDAMDYWGQGTSVTVSS
VL: DIVITQSPKSMSMSVGERVTLTCKASENVVTYVSWYQQKPEQSPKLMIYGASNRYTGVPDRFTGSGSATDFTLTISSVQAEDLADYHCGQGYSYPYTFGGGTKLEIK
Consider B1, for which the “IC50 (read off the curve)” value in [1] is around 0.6 µg. For the same molecule, the “percent binding relative to the wild-type peptide” value in assay [2], in [3] and in assay [4] was around 50% each time. The “reactivity relative to the wild-type peptide” value in [5], in assay [6] and in assay [7] was ~0.25 fraction of wild-type peptide each time. Further, the “ELISA absorbance relative to wild-type peptide (= 100)” value amounted to 3.2 in [8]; 0.8 in assay [9]; 44 in assay [10]; 1.8 in [11]; 33 in assay [12]; 34 in assay [13]. Also, the “ELISA absorbance relative to wild-type peptide (= 100)” value in assay [14] worked out at 55; in assay [15], 67; in assay [16] it was 6; in assay [17], 27; in assay [18] it was 23; in assay [19] it was 56. Also, the “ELISA absorbance relative to wild-type peptide (= 100)” value in [20] worked out at 27; in [21] it was 100; in assay [22], 100.

B2: monoclonal antibody 9-10.2 (antibody, V domains shown)
VH: SLTCSFSGFSLSSSGMGVGWIRQPSGKGLEWLAHIWWDDDKNYNPGLKSRLTISKDTSKNQVFLKIANVDTADAATYYCTRTRTYSNFGGGMAYWGQGTSVTVSS
VL: LGDQASISCRSSQSIAHSNGYTYLEWYLQTPGQSPKLLIYKVSNRFSGVPDRFSGSGSGTDFTLKISRVEAEDLGVYYCVQGSHVPLTFGAGTKLELK
As for B2, the “percent binding relative to the wild-type peptide” value in assay [2], in assay [3] and in assay [4] was around 50% throughout. Moreover, the “reactivity relative to the wild-type peptide” value in assay [5], in assay [6] and in assay [7] was ~0.25 fraction of wild-type peptide throughout. Moreover, the “ELISA absorbance relative to wild-type peptide (= 100)” value worked out at 2.5 in [8]; 0.3 in assay [9]; 50 in assay [10]; 2.6 in assay [11]; 14 in assay [12]; 20 in assay [13]. Moreover, the “ELISA absorbance relative to wild-type peptide (= 100)” value in assay [14] is 45; in assay [15] it was 39; in [16] it was 5; in assay [17] it was 26; in assay [18], 13; in [19], 27. The “ELISA absorbance relative to wild-type peptide (= 100)” value in [20] worked out at 44; in assay [21], 100; in assay [22], 100. For the same molecule, the Kd in [23] was 0.19 nM. Moreover, the kon in assay [23] came to 210000 M⁻¹ s⁻¹.

(Values after US20210317200A1 (MABPROTEIN, published 2021).)
